The assay concerns the target His-Ub (UniProt P0CG48 1-76). Put plainly: pull-down.

B1: GST-NAT10 RFL (RING finger-like, residues 456-558) (domain or fragment)
chain: SARTLYEVSLQESIRYAPGDAVEKWLNDLLCLDCLNITRIVSGCPLPEACELYYVNRDTLFCYHKASEVFLQRLMALYVASHYKNSPNDLQMLSDAPAHHLFC
On to B1, for which the binding result is recorded as “binds”.

These data come from publication PMC4772976 (EMBO Reports, 2016).
